Experimental data from paper PMC7986808.

T1: RH2, His-TF-RH2 (Medicago truncatula, UniProt A0A072TSA4 1-207)
T1 sequence: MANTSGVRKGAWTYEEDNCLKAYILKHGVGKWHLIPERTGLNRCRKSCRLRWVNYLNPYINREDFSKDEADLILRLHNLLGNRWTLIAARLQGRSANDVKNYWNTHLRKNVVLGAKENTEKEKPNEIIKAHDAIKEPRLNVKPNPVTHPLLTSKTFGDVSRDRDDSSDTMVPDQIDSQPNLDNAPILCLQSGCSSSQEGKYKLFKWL

B1: MtCHS probe (dsDNA)
DNA 1: TCAGACTCACATTAAAACTACAGTCTGTTGAGTTGTGCTATTATATTAAGAGAGACAAT
DNA 2: ATTGTCTCTCTTAATATAATAGCACAACTCAACAGACTGTAGTTTTAATGTGAGTCTGA
B2: MtANS probe (dsDNA)
DNA 1: CTATATATAAGAAGCTAGCTGCATACAACCATTTATTCACGTTTTGTGCTGTGCAATCA
DNA 2: TGATTGCACAGCACAAAACGTGAATAAATGGTTGTATGCAGCTAGCTTCTTATATATAG

Molecular target: T1, RH2, His-TF-RH2
Assay: EMSA

Binder | binding result
B1 | binds
B2 | binds
